{"source": "the Immune Epitope Database (IEDB)", "key": {"[1]": {"molecular_target": "HLA-A*02:01", "test": "IEDB peptide-MHC binding, cellular MHC/competitive/fluorescence; ≥ and ≤ were set here for values at or beyond the usual limits of such assays", "conditions": "source organism: Homo sapiens"}, "[2]": {"molecular_target": "HLA-A*02:50", "test": "IEDB peptide-MHC binding, purified MHC/direct/fluorescence; filed as Kd, often an IC50 or EC50 that approximates it; ≥ and ≤ were set here for values at or beyond the usual limits of such assays", "conditions": "source organism: Francisella tularensis subsp. tularensis FSC033"}, "[3]": {"molecular_target": "HLA-A*29:02", "test": "IEDB peptide-MHC binding, purified MHC/direct/fluorescence; filed as Kd, often an IC50 or EC50 that approximates it; ≥ and ≤ were set here for values at or beyond the usual limits of such assays", "conditions": "source organism: Francisella tularensis subsp. tularensis FSC033"}, "[4]": {"molecular_target": "HLA-A*02:19", "test": "IEDB peptide-MHC binding, purified MHC/direct/fluorescence; filed as Kd, often an IC50 or EC50 that approximates it; ≥ and ≤ were set here for values at or beyond the usual limits of such assays", "conditions": "source organism: Francisella tularensis subsp. tularensis FSC033"}, "[5]": {"molecular_target": "HLA-B*51:01", "test": "IEDB peptide-MHC binding, purified MHC/direct/fluorescence; filed as Kd, often an IC50 or EC50 that approximates it; ≥ and ≤ were set here for values at or beyond the usual limits of such assays", "conditions": "source organism: Francisella tularensis subsp. tularensis FSC033"}, "[6]": {"molecular_target": "HLA-B*58:01", "test": "IEDB peptide-MHC binding, purified MHC/direct/fluorescence; filed as Kd, often an IC50 or EC50 that approximates it; ≥ and ≤ were set here for values at or beyond the usual limits of such assays"}, "[7]": {"molecular_target": "HLA-B*57:01", "test": "IEDB peptide-MHC binding, purified MHC/direct/fluorescence; filed as Kd, often an IC50 or EC50 that approximates it; ≥ and ≤ were set here for values at or beyond the usual limits of such assays"}, "[8]": {"molecular_target": "HLA-B*18:01", "test": "IEDB peptide-MHC binding, purified MHC/direct/fluorescence; filed as Kd, often an IC50 or EC50 that approximates it; ≥ and ≤ were set here for values at or beyond the usual limits of such assays", "conditions": "source organism: Francisella tularensis subsp. tularensis FSC033"}, "[9]": {"molecular_target": "HLA-B*40:01", "test": "IEDB peptide-MHC binding, purified MHC/direct/fluorescence; filed as Kd, often an IC50 or EC50 that approximates it; ≥ and ≤ were set here for values at or beyond the usual limits of such assays", "conditions": "source organism: Francisella tularensis subsp. tularensis FSC033"}, "[10]": {"molecular_target": "HLA-B*44:02", "test": "IEDB peptide-MHC binding, purified MHC/direct/fluorescence; filed as Kd, often an IC50 or EC50 that approximates it; ≥ and ≤ were set here for values at or beyond the usual limits of such assays", "conditions": "source organism: Francisella tularensis subsp. tularensis FSC033"}, "[11]": {"molecular_target": "HLA-A*24:03", "test": "IEDB peptide-MHC binding, purified MHC/direct/fluorescence; filed as Kd, often an IC50 or EC50 that approximates it; ≥ and ≤ were set here for values at or beyond the usual limits of such assays", "conditions": "source organism: Francisella tularensis subsp. tularensis FSC033"}, "[12]": {"molecular_target": "HLA-B*07:02", "test": "IEDB peptide-MHC binding, purified MHC/direct/fluorescence; filed as Kd, often an IC50 or EC50 that approximates it; ≥ and ≤ were set here for values at or beyond the usual limits of such assays", "conditions": "source organism: Francisella tularensis subsp. tularensis FSC033"}, "[13]": {"molecular_target": "HLA-A*23:01", "test": "IEDB peptide-MHC binding, purified MHC/direct/fluorescence; filed as Kd, often an IC50 or EC50 that approximates it; ≥ and ≤ were set here for values at or beyond the usual limits of such assays", "conditions": "source organism: Francisella tularensis subsp. tularensis FSC033"}, "[14]": {"molecular_target": "HLA-A*30:01", "test": "IEDB peptide-MHC binding, purified MHC/direct/fluorescence; filed as Kd, often an IC50 or EC50 that approximates it; ≥ and ≤ were set here for values at or beyond the usual limits of such assays", "conditions": "source organism: Francisella tularensis subsp. tularensis FSC033"}, "[15]": {"molecular_target": "HLA-A*26:01", "test": "IEDB peptide-MHC binding, purified MHC/competitive/fluorescence; filed as Kd, often an IC50 or EC50 that approximates it; ≥ and ≤ were set here for values at or beyond the usual limits of such assays", "conditions": "source organism: Francisella tularensis subsp. tularensis FSC198"}, "[16]": {"molecular_target": "HLA-C*15:02", "test": "IEDB peptide-MHC binding, purified MHC/direct/fluorescence; filed as Kd, often an IC50 or EC50 that approximates it; ≥ and ≤ were set here for values at or beyond the usual limits of such assays", "conditions": "source organism: Influenza A virus (A/Fort Monmouth/1/1947-mouse adapted(H1N1))"}, "[17]": {"molecular_target": "HLA-B*15:17", "test": "IEDB peptide-MHC binding, purified MHC/direct/fluorescence; filed as Kd, often an IC50 or EC50 that approximates it; ≥ and ≤ were set here for values at or beyond the usual limits of such assays", "conditions": "source organism: Influenza A virus (A/finch/Canada/NS1301/2001(H3N8))"}, "[18]": {"molecular_target": "HLA-A*68:23", "test": "IEDB peptide-MHC binding, purified MHC/competitive/fluorescence; filed as Kd, often an IC50 or EC50 that approximates it; ≥ and ≤ were set here for values at or beyond the usual limits of such assays", "conditions": "source organism: Influenza A virus (A/Fort Monmouth/1/1947-mouse adapted(H1N1))"}, "[19]": {"molecular_target": "HLA-B*45:06", "test": "IEDB peptide-MHC binding, purified MHC/competitive/fluorescence; filed as Kd, often an IC50 or EC50 that approximates it; ≥ and ≤ were set here for values at or beyond the usual limits of such assays", "conditions": "source organism: Influenza A virus (A/Fort Monmouth/1/1947-mouse adapted(H1N1))"}, "[20]": {"molecular_target": "HLA-A*32:15", "test": "IEDB peptide-MHC binding, purified MHC/competitive/fluorescence; filed as Kd, often an IC50 or EC50 that approximates it; ≥ and ≤ were set here for values at or beyond the usual limits of such assays", "conditions": "source organism: Influenza A virus (A/Fort Monmouth/1/1947-mouse adapted(H1N1))"}, "[21]": {"molecular_target": "HLA-B*15:42", "test": "IEDB peptide-MHC binding, purified MHC/competitive/fluorescence; filed as Kd, often an IC50 or EC50 that approximates it; ≥ and ≤ were set here for values at or beyond the usual limits of such assays", "conditions": "source organism: Influenza A virus (A/Fort Monmouth/1/1947-mouse adapted(H1N1))"}, "[22]": {"molecular_target": "HLA-A*32:07", "test": "IEDB peptide-MHC binding, purified MHC/competitive/fluorescence; filed as Kd, often an IC50 or EC50 that approximates it; ≥ and ≤ were set here for values at or beyond the usual limits of such assays", "conditions": "source organism: Influenza A virus (A/Fort Monmouth/1/1947-mouse adapted(H1N1))"}, "[23]": {"molecular_target": "HLA-B*83:01", "test": "IEDB peptide-MHC binding, purified MHC/competitive/fluorescence; filed as Kd, often an IC50 or EC50 that approximates it; ≥ and ≤ were set here for values at or beyond the usual limits of such assays", "conditions": "source organism: Influenza A virus (A/Fort Monmouth/1/1947-mouse adapted(H1N1))"}, "[24]": {"conditions": "source organism: Francisella tularensis subsp. tularensis FSC033"}, "[25]": {"conditions": "source organism: Influenza A virus (A/finch/Canada/NS1301/2001(H3N8))"}}, "data": [{"sequence": "LLLDVPTAAVQA", "values": [{"measurement": "IC50", "setting": "[1]", "value": 1890, "unit": "nM"}]}, {"sequence": "NTIEELSGY", "values": [{"measurement": "Kd", "setting": "[2]", "value": "≥ 20000", "unit": "nM"}, {"measurement": "Kd", "setting": "[3]", "value": 28, "unit": "nM"}, {"measurement": "Kd", "setting": "[4]", "value": "≥ 20000", "unit": "nM"}, {"measurement": "Kd", "setting": "[5]", "value": "≥ 20000", "unit": "nM"}, {"measurement": "Kd", "setting": "[6]; [24]", "value": "≥ 20000", "unit": "nM"}, {"measurement": "Kd", "setting": "[7]; [24]", "value": "≥ 20000", "unit": "nM"}, {"measurement": "Kd", "setting": "[8]", "value": "≥ 20000", "unit": "nM"}, {"measurement": "Kd", "setting": "[9]", "value": "≥ 20000", "unit": "nM"}, {"measurement": "Kd", "setting": "[10]", "value": "≥ 20000", "unit": "nM"}, {"measurement": "Kd", "setting": "[11]", "value": "≥ 20000", "unit": "nM"}, {"measurement": "Kd", "setting": "[12]", "value": "≥ 20000", "unit": "nM"}, {"measurement": "Kd", "setting": "[13]", "value": "≥ 20000", "unit": "nM"}, {"measurement": "Kd", "setting": "[14]", "value": "≥ 20000", "unit": "nM"}, {"measurement": "Kd", "setting": "[15]", "value": 0.6, "unit": "nM"}]}, {"sequence": "GTFEFTSFF", "values": [{"measurement": "Kd", "setting": "[6]; [25]", "value": 496, "unit": "nM"}, {"measurement": "Kd", "setting": "[16]", "value": 3660, "unit": "nM"}, {"measurement": "Kd", "setting": "[17]", "value": 5.9, "unit": "nM"}, {"measurement": "Kd", "setting": "[7]; [25]", "value": 360, "unit": "nM"}, {"measurement": "Kd", "setting": "[18]", "value": 5.7, "unit": "nM"}, {"measurement": "Kd", "setting": "[19]", "value": "≥ 5000", "unit": "nM"}, {"measurement": "Kd", "setting": "[20]", "value": 893, "unit": "nM"}, {"measurement": "Kd", "setting": "[21]", "value": "≥ 5000", "unit": "nM"}, {"measurement": "Kd", "setting": "[22]", "value": 23.8, "unit": "nM"}, {"measurement": "Kd", "setting": "[23]", "value": "≥ 5000", "unit": "nM"}]}]}
